Measurements: PMC7261193, “The ancillary N-terminal region of the yeast AP-1 transcription factor Yap8 contributes to its DNA binding specificity”

How the values were obtained:
[1] = biological target: GST-Yap8-7aa A23T;L26N;S29A;N31R;K35E;L37E;E39R (Saccharomyces cerevisiae) (UniProt Q06596); experiment: fluorescence anisotropy; conditions: FA: 10 mM Tris-HCl pH 8, 50 mM NaCl, 0.5% NP-40, 1 mM DTT, 5% glycerol, 1 nM DNA, 25C (half volume protein elution buffer). Biotin EMSA: LightShift 1x buffer …
[2] = biological target: GST-Yap8-8aa N20Q;A23T;L26N;S29A;N31R;K35E;L37E;E39R (Saccharomyces cerevisiae) (UniProt Q06596); experiment: fluorescence anisotropy; conditions: FA: 10 mM Tris-HCl pH 8, 50 mM NaCl, 0.5% NP-40, 1 mM DTT, 5% glycerol, 1 nM DNA, 25C (half volume protein elution buffer). Biotin EMSA: LightShift 1x buffer …
GST-Yap8-4aa = biological target: T1, GST-Yap8-4aa (Saccharomyces cerevisiae, UniProt Q06596 1-294, A23T;L26N;S29A;N31R); experiment: EMSA; FA: 10 mM Tris-HCl pH 8, 50 mM NaCl, 0.5% NP-40, 1 mM DTT, 5% glycerol, 1 nM DNA, 25C (half volume protein elution buffer). Biotin EMSA: LightShift 1x buffer, 50 ng poly(dI-dC), 2.5% glycerol, 0.05% NP-40, 5 mM MgCl2, 20 fmol probe, RT 20 min. 32P EMSA: 10 mM Tris-HCl pH 8.0, 50 mM NaCl, 1 mM DTT, 0.05% NP-40, 100 ng poly(dI-dC), 6% glycerol, 4C 30 min; conditions: protein: recombinant, tags: GST (N-term), chain copies: 2, blunt
T1 sequence: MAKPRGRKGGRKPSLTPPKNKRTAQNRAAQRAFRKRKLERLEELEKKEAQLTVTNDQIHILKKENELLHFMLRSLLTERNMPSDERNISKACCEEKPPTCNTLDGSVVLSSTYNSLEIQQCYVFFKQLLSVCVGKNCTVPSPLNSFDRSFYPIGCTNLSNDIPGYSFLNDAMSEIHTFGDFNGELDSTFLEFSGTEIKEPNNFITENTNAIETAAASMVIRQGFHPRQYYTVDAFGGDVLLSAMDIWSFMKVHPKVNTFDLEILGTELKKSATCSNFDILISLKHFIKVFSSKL

GST-Yap8 WT [3] = biological target: T2, GST-Yap8 WT (Saccharomyces cerevisiae, UniProt Q06596 1-294); experiment: as above; conditions: protein: recombinant; tags: GST (N-term); chain copies: 2; label: 32P 5'; blunt
T2 sequence: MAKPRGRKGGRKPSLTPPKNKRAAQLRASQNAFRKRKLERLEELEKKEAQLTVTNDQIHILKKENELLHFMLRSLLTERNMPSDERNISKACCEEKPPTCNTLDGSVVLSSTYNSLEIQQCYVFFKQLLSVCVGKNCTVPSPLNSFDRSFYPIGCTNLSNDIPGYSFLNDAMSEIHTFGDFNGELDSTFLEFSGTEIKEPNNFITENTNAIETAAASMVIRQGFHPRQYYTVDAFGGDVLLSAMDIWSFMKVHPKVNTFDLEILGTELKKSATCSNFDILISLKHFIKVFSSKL

GST-Yap8-N20A = biological target: T3, GST-Yap8-N20A (Saccharomyces cerevisiae, UniProt Q06596 1-294, N20A); experiment: as above; conditions: protein: recombinant; tags: GST (N-term); chain copies: 2; label: 32P 5'; blunt
T3 sequence: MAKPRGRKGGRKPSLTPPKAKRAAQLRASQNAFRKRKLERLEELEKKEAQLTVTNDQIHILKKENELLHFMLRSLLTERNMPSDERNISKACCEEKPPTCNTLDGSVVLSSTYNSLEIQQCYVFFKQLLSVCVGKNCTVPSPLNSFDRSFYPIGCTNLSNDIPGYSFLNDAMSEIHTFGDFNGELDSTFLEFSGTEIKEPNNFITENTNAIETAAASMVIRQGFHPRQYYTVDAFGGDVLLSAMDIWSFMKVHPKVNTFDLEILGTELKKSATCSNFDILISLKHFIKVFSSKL

GST-Yap8-N20Q = biological target: T4, GST-Yap8-N20Q (Saccharomyces cerevisiae, UniProt Q06596 1-294, N20Q); experiment: as above; conditions: protein: recombinant; tags: GST (N-term); chain copies: 2; label: 32P 5'; blunt
T4 sequence: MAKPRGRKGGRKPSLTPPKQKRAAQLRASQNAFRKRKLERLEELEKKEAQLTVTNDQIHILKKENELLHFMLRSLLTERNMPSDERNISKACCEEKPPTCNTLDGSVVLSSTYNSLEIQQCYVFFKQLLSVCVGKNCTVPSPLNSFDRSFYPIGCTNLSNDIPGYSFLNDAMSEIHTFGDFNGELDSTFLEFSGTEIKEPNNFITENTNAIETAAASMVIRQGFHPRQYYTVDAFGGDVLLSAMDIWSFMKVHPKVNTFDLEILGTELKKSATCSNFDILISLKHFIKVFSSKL

GST-Yap8 WT [4] = biological target: T2, GST-Yap8 WT; experiment: fluorescence anisotropy; series c; FA: 10 mM Tris-HCl pH 8, 50 mM NaCl, 0.5% NP-40, 1 mM DTT, 5% glycerol, 1 nM DNA, 25C (half volume protein elution buffer). Biotin EMSA: LightShift 1x buffer, 50 ng poly(dI-dC), 2.5% glycerol, 0.05% NP-40, 5 mM MgCl2, 20 fmol probe, RT 20 min. 32P EMSA: 10 mM Tris-HCl pH 8.0, 50 mM NaCl, 1 mM DTT, 0.05% NP-40, 100 ng poly(dI-dC), 6% glycerol, 4C 30 min; conditions: protein: recombinant; tags: GST (N-term); chain copies: 2; label: 5' FAM; blunt
GST-Yap8-R7K,R11K = biological target: T5, GST-Yap8-R7K,R11K (Saccharomyces cerevisiae, UniProt Q06596 1-294, R7K;R11K); experiment: EMSA; FA: 10 mM Tris-HCl pH 8, 50 mM NaCl, 0.5% NP-40, 1 mM DTT, 5% glycerol, 1 nM DNA, 25C (half volume protein elution buffer). Biotin EMSA: LightShift 1x buffer, 50 ng poly(dI-dC), 2.5% glycerol, 0.05% NP-40, 5 mM MgCl2, 20 fmol probe, RT 20 min. 32P EMSA: 10 mM Tris-HCl pH 8.0, 50 mM NaCl, 1 mM DTT, 0.05% NP-40, 100 ng poly(dI-dC), 6% glycerol, 4C 30 min; conditions: protein: recombinant; tags: GST (N-term); chain copies: 2; blunt
T5 sequence: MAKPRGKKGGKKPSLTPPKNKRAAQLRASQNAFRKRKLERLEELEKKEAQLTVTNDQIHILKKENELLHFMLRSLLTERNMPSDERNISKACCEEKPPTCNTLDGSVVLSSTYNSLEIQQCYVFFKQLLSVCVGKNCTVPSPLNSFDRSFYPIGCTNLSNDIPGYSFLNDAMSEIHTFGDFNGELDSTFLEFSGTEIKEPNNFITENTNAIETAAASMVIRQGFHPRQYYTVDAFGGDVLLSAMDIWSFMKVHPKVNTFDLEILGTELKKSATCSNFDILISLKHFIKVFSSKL

GST-Yap8-R11K = biological target: T6, GST-Yap8-R11K (Saccharomyces cerevisiae, UniProt Q06596 1-294, R11K); experiment: as above; conditions: protein: recombinant; tags: GST (N-term); chain copies: 2; blunt
T6 sequence: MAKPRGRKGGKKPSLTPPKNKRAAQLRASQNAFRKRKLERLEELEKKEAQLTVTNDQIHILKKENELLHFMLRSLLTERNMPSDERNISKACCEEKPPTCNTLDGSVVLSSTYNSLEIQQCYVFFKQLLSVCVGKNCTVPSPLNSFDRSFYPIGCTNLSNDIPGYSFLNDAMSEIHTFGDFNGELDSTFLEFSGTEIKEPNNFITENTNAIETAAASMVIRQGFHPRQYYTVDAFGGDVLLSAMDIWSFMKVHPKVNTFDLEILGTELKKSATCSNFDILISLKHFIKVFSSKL

GST-Yap8-G10A = biological target: T7, GST-Yap8-G10A (Saccharomyces cerevisiae, UniProt Q06596 1-294, G10A); experiment: as above; conditions: protein: recombinant; tags: GST (N-term); chain copies: 2; blunt
T7 sequence: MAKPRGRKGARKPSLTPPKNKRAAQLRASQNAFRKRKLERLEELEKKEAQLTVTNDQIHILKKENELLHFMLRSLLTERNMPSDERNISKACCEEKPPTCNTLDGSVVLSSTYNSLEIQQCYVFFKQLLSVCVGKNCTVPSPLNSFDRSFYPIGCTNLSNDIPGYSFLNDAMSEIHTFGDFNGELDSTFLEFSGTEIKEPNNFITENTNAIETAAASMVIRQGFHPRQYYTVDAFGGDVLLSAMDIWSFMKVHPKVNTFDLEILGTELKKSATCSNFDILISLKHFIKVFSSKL

Work on “CTTTTTGTTTGATTAATAATCAACTTTAGCG (double strand) [ACR3-WT (FAM)]” yielded a Kd [1] of 9.3 nM and a Kd [2] of 15.1 nM.

B1: TRX2short (dsDNA)
DNA 1: ATTGTTTATACTCTTAGTAAAGGATGCTCCCTACAAGGTGGCTCTTTTCTTACTAAGCGCGTTCAGTTTC
DNA 2: GAAACTGAACGCGCTTAGTAAGAAAAGAGCCACCTTGTAGGGAGCATCCTTTACTAAGAGTATAAACAAT
B1: no binding (GST-Yap8-4aa; label: 32P 5').

B2: GSH1short (dsDNA)
DNA 1: TTCTGCCCAACGACGGCTGCCATTAGTCAGCATGGCGCGCACGTGACTACA
DNA 2: TGTAGTCACGTGCGCGCCATGCTGACTAATGGCAGCCGTCGTTGGGCAGAA
B2: no binding (GST-Yap8 WT [3]); no binding (GST-Yap8-N20A); no binding (GST-Yap8-N20Q).

B3: ACR3-M3 (FAM) (dsDNA)
DNA 1: CTTTGCGGCTGATTAATAATCAACCGGAGCG
DNA 2: CGCTCCGGTTGATTATTAATCAGCCGCAAAG
For B3, the Kd (GST-Yap8 WT [4]) was 19.4 ± 4.1 nM.

B4: ACR3short (WT) (dsDNA)
DNA 1: TCTTAATTATCTTTTTGTTTGATTAATAATCAACTTTAGCGGCAACGCTCC
DNA 2: GGAGCGTTGCCGCTAAAGTTGATTATTAATCAAACAAAAAGATAATTAAGA
B4: no binding (GST-Yap8-R7K,R11K); no binding (GST-Yap8-R11K); no binding (GST-Yap8-G10A). B4: binds (GST-Yap8-4aa).
